The test system of series [1] is Zymoseptoria tritici (SEPTTR-184). The series is described as follows: Efficacy of target gene fragments (MgCytB dsRNA tiles) on wheat plants, SEPTTR-184. Conditions: for ED50 SEPTTR-184 1DP / ED80 SEPTTR-184 1DP / Disease Control All Rates Average SEPTTR-184 1DP / Sum of Disease Control SEPTTR-184 1DP / Average of 2 trials SEPTTR-184 1DP: 1DP (preventative); for Disease Control All Rates Average SEPTTR-184 1DP / Disease Control All Rates Average SEPTTR-184 3DC: average of 200, 50, 12.5, 3.125 ppm; for Sum of Disease Control SEPTTR-184 1DP / Sum of Disease Control SEPTTR-184 3DC: sum over 200, 50, 12.5, 3.125 ppm; for ED50 SEPTTR-184 3DC / ED80 SEPTTR-184 3DC / Disease Control All Rates Average SEPTTR-184 3DC / Sum of Disease Control SEPTTR-184 3DC / Average of 2 trials SEPTTR-184 3DC: 3DC (curative). Details: Average of 2 trials SEPTTR-184 3DC / Average of 2 trials SEPTTR-184 1DP: scale not given here. The class given is in vivo. The method, then:
The 200 ppm rate for each treatment was prepared by adding the calculated volume of the corresponding dsRNA solution in TE buffer. Lower rates were prepared as 4-fold dilutions (50 ppm, 12.5 ppm, and 3.12 ppm). A non-target dsRNA control (YFP), a TE/phosphate buffer control, disease pressure control, and clean plant control were included.
(§1) These plants were inoculated with an aqueous spore suspension of Zymoseptoria tritici either prior to or after fungicidal treatments. After inoculation the plants were kept in 100% relative humidity to allow spores to germinate and infect the leaves. The plants were then transferred to a greenhouse until disease developed.

In series [2] the test system is Zymoseptoria tritici (SEPTTR) US-184. The series is described as follows: CytB dsRNA foliar application bioassay on wheat seedlings, SEPTTR US-184. Format: in vivo. Conditions: compared to the non-treated control; strain not given. The procedure:
RNAi (dsRNA) fungicidal solutions were prepared in TE buffer (pH 8.0), which were then mixed with 9 volumes of phosphate buffer (pH 7.5) containing 0.1% Triton X-100. The fungicidal solutions were applied to wheat seedlings using an automated booth sprayer to run-off. All sprayed plants were allowed to air dry prior to further handling.
The following served as controls: 1% silwet in phosphate buffer control, disease pressure control (untreated), and clean plant control (negative control).
as §1

Experimental findings from US10392620B2, “Cytochrome B (CYTB) nucleic acid molecules that control pathogens” (Dow AgroSciences LLC, priority 2016, dated 2019) are described below.

B1: MgCytB-T1: 267 bp dsRNA of Zymoseptoria CytB region 1, location 364-630 (SEQ ID NO:4) (nucleic acid, listed as Zymoseptoria tritici)
chain: GTTCTGATGATGGCAACCGCATTCTTAGGGTATGTATTACCTTATGGTCAAATGTCTTTATGAGGAGCAACAGTTATAACTAACTTATTGAGTGCAATACCTTGAGTTGGACAAGACATAGTTGAATTCGTATGAGGTGGATTTTCTGTTAACAATGCAACATTGAACAGATTCTTTGCTCTACATTTCGTTTTACCGTTTGTGTTAGCTGCATTAGTTTTAATGCATCTAATAGCTTTACACGATACAGCGGGTTCAGGAAATCCT
modifications: complementary strand of dsRNA
Take B1: in series [1], the “ED50 SEPTTR-184 1DP” value is less than 3.125 ppm, the “ED80 SEPTTR-184 1DP” value is listed as 200 ppm, the “Disease Control All Rates Average SEPTTR-184 1DP” value came out at 66% and the “Sum of Disease Control SEPTTR-184 1DP” value is listed as 263%. Further, in series [1], the “ED50 SEPTTR-184 3DC” value is on record as less than 3.125 ppm, the “ED80 SEPTTR-184 3DC” value is 159 ppm, the “Disease Control All Rates Average SEPTTR-184 3DC” value was 79% and the “Sum of Disease Control SEPTTR-184 3DC” value worked out at 318%. In addition, in series [1] (3.125 ppm), the “Average of 2 trials SEPTTR-184 1DP” value is on record as 53 and the “Average of 2 trials SEPTTR-184 3DC” value was 77. Also, in series [1] (12.5 ppm), the “Average of 2 trials SEPTTR-184 1DP” value was 58 and the “Average of 2 trials SEPTTR-184 3DC” value was 76. In series [1] (50 ppm), the “Average of 2 trials SEPTTR-184 1DP” value is recorded as 71 and the “Average of 2 trials SEPTTR-184 3DC” value stood at 79. For the same molecule, in series [1] (200 ppm), the “Average of 2 trials SEPTTR-184 1DP” value is recorded as 80 and the “Average of 2 trials SEPTTR-184 3DC” value is reported as 85. The “control of Septoria leaf blotch on wheat seedlings” value in series [2] is “observed to control Septoria leaf blotch”.

B2: MgCytB-T2: 203 bp dsRNA of Zymoseptoria CytB region 2, location 603-805 (SEQ ID NO:5) (nucleic acid, listed as Zymoseptoria tritici)
chain: ACACGATACAGCGGGTTCAGGAAATCCTTTAGGTGTATCAGGTAACTACGATAGATTACCATTCGCCCCTTACTTTATATTCAAAGATTTAATAACAATATTTTTATTCATTATAGTGTTATCAATATTTATTTTCTTTATGCCTAACGTTTTAGGTGACAGCGAGAATTATGTTATGGCTAACCCTATGCAAACTCCACCTG
modifications: complementary strand of dsRNA
B2: in series [1], the “ED50 SEPTTR-184 1DP” value was less than 3.125 ppm, the “ED80 SEPTTR-184 1DP” value is given as greater than 200 ppm, the “Disease Control All Rates Average SEPTTR-184 1DP” value amounted to 71% and the “Sum of Disease Control SEPTTR-184 1DP” value amounted to 285%. Besides, in series [1], the “ED50 SEPTTR-184 3DC” value is reported as less than 3.125 ppm, the “ED80 SEPTTR-184 3DC” value was found to be 27 ppm, the “Disease Control All Rates Average SEPTTR-184 3DC” value was determined as 82% and the “Sum of Disease Control SEPTTR-184 3DC” value was 329%. Also, in series [1] (3.125 ppm), the “Average of 2 trials SEPTTR-184 1DP” value was 67 and the “Average of 2 trials SEPTTR-184 3DC” value stood at 77. In series [1] (12.5 ppm), the “Average of 2 trials SEPTTR-184 1DP” value was found to be 71 and the “Average of 2 trials SEPTTR-184 3DC” value came to 77. Further, in series [1] (50 ppm), the “Average of 2 trials SEPTTR-184 1DP” value was 71 and the “Average of 2 trials SEPTTR-184 3DC” value amounted to 85. In addition, in series [1] (200 ppm), the “Average of 2 trials SEPTTR-184 1DP” value was 77 and the “Average of 2 trials SEPTTR-184 3DC” value is given as 90. In series [2], the “control of Septoria leaf blotch on wheat seedlings” value was “observed to control Septoria leaf blotch”.
